The values that follow come from patent publication EP3145530B1.

The target in one test is TRAIL-R1/DR4 (human) (UniProt O00220). In words: cell-based or functional assay.
The target of the next test is TRAIL-R2/DR5 (human) (UniProt O14763). In words: cell-based or functional assay.
UniProt O14763, sequence (O14763 56-440): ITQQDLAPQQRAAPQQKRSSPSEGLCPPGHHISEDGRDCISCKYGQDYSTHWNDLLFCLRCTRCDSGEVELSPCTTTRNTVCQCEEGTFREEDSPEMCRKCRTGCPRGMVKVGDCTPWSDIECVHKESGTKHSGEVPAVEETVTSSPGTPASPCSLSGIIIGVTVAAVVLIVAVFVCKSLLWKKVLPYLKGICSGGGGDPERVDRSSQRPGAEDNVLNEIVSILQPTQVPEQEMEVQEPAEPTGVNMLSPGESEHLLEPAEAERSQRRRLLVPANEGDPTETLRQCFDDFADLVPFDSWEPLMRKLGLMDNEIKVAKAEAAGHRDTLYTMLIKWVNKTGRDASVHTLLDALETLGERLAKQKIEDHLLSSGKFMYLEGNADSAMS

UniProt O00220, sequence (O00220 24-468): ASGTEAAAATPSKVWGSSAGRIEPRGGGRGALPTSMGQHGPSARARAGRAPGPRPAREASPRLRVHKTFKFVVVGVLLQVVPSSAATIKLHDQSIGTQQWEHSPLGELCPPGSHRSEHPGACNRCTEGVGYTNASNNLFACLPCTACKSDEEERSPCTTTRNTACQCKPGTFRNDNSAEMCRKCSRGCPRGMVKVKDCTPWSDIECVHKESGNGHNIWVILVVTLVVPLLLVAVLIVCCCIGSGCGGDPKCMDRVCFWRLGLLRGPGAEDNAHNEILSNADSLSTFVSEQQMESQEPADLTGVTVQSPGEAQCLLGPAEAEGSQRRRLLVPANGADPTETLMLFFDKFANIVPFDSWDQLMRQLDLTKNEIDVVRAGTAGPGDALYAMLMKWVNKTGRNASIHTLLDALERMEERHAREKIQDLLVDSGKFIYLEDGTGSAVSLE

In the test with TRAIL-R1/DR4 (human), “TRAIL (TNF-related apoptosis-inducing ligand)” gave a fold increase in induced cell death (MTT, 3 h) of human primary HSCs treated at day 7 versus day 1 of 4.5 fold; a fold increase in induced cell death (MTT, 3 h) of human primary HSCs treated at day 14 versus day 1 of 7.5 fold; a fold increase in induced cell death (MTT, 3 h) of human primary PSCs from day 1 to day 14 of 5.5 fold. In the test with TRAIL-R2/DR5 (human), this substance had a fold increase in induced cell death (MTT, 3 h) of human primary HSCs treated at day 7 versus day 1 of 4.5 fold; a fold increase in induced cell death (MTT, 3 h) of human primary HSCs treated at day 14 versus day 1 of 7.5 fold; a fold increase in induced cell death (MTT, 3 h) of human primary PSCs from day 1 to day 14 of 5.5 fold.
